Data: patent US20160264649A1

Experiments:
Assay in all cases: cell-based or functional assay
[1] = molecular target: HIV-1 Env of isolate MGRM-Chronic-B-010 (HIV-1)
[2] = molecular target: HIV-1 Env of isolate APV_13 (HIV-1)
[3] = molecular target: HIV-1 Env of isolate JRCSF (HIV-1) (UniProt P20871)
[4] = molecular target: HIV-1 Env of isolate 93IN905 (HIV-1)
[5] = molecular target: HIV-1 Env of isolate MGRM-Chronic-B-008 (HIV-1)
[6] = molecular target: HIV-1 Env of isolate MGRM-Chronic-B-001 (HIV-1)
[7] = molecular target: HIV-1 Env of isolate MGRM-Chronic-B-024 (HIV-1)
[8] = molecular target: HIV-1 Env of isolate MGRM-Chronic-B-003 (HIV-1)
[9] = molecular target: HIV-1 Env of isolate TRJ04551.58 (HIV-1)
[10] = molecular target: HIV-1 Env of isolate MGRM-Chronic-B-020 (HIV-1)
[11] = molecular target: HIV-1 Env of isolate NL43 (HIV-1)
[12] = molecular target: HIV-1 Env of isolate MGRM-Chronic-B-012 (HIV-1)
[13] = molecular target: HIV-1 Env of isolate 93MW959 (HIV-1)
[14] = molecular target: HIV-1 Env of isolate MGRM-Chronic-B-018 (HIV-1)
[15] = molecular target: HIV-1 Env of isolate MGRM-Chronic-B-023 (HIV-1)
[16] = molecular target: HIV-1 Env of isolate SC422661.8 (HIV-1)
[17] = molecular target: HIV-1 Env of isolate VLGCB3 (HIV-1)
[18] = molecular target: HIV-1 Env of isolate MGRM-Chronic-B-004 (HIV-1)
[19] = molecular target: HIV-1 Env of isolate THR0.18 (HIV-1)
[20] = molecular target: HIV-1 Env of isolate MGRM-Chronic-B-011 (HIV-1)
[21] = molecular target: HIV-1 Env of isolate MG RM-C-025 (HIV-1)
[22] = molecular target: HIV-1 Env of isolate 6535.3 (HIV-1)
[23] = molecular target: HIV-1 Env of isolate MG RM-C-023 (HIV-1)
[24] = molecular target: HIV-1 Env of isolate MG RM-C-022 (HIV-1)
[25] = molecular target: HIV-1 Env of isolate QH0692.42 (HIV-1)
[26] = molecular target: HIV-1 Env of isolate MG RM-C-024 (HIV-1)
[27] = molecular target: HIV-1 Env of isolate MG RM-C-020 (HIV-1)
[28] = molecular target: HIV-1 Env of isolate APV_6 (HIV-1)
[29] = molecular target: HIV-1 Env of isolate JRFL (HIV-1)
[30] = molecular target: HIV-1 Env of isolate MGRM-Chronic-B-017 (HIV-1)
[31] = molecular target: HIV-1 Env of isolate PVO.4 (HIV-1)
[32] = molecular target: HIV-1 Env of isolate MG RM-C-028 (HIV-1)
[33] = molecular target: HIV-1 Env of isolate 92 BR 020 (HIV-1)
[34] = molecular target: HIV-1 Env of isolate 93TH305 (HIV-1)
[35] = molecular target: HIV-1 Env of isolate MG RM-C-027 (HIV-1)
[36] = molecular target: HIV-1 Env of isolate 97ZA012 (HIV-1)
[37] = molecular target: HIV-1 Env of isolate MGRM-Chronic-B-002 (HIV-1)
[38] = molecular target: HIV-1 Env of isolate SF162 (HIV-1) (UniProt P19550)
[39] = molecular target: HIV-1 Env of isolate 98IN022 (HIV-1)
[40] = molecular target: HIV-1 Env of isolate CAAN.A2 (HIV-1)
[41] = molecular target: HIV-1 Env of isolate MG RM-C-026 (HIV-1)
[42] = molecular target: HIV-1 Env of isolate TRO.11 (HIV-1)
[43] = molecular target: HIV-1 Env of isolate APV_17 (HIV-1)

Substance: PGT-126 monoclonal antibody (5141_B17)
- neutralization IC50 [1]: 0.005 µg/mL
- neutralization IC50 [2]: 0.012 µg/mL
- neutralization IC50 [3]: 0.008 µg/mL
- neutralization IC50 [4]: 0.015 µg/mL
- neutralization IC50 [5]: 5.89 µg/mL
- neutralization IC50 [6]: > 50 µg/mL
- neutralization IC50 [7]: > 50 µg/mL
- neutralization IC50 [8]: 0.041 µg/mL
- neutralization IC50 [9]: 0.025 µg/mL
- neutralization IC50 [10]: 0.021 µg/mL
- neutralization IC50 [11]: > 50 µg/mL
- neutralization IC50 [12]: 0.027 µg/mL
- neutralization IC50 [13]: 9.44 µg/mL
- neutralization IC50 [14]: 0.052 µg/mL
- neutralization IC50 [15]: > 50 µg/mL
- neutralization IC50 [16]: 0.119 µg/mL
- neutralization IC50 [17]: 0.007 µg/mL
- neutralization IC50 [18]: 0.01 µg/mL
- neutralization IC50 [19]: > 50 µg/mL
- neutralization IC50 [20]: 0.108 µg/mL
- neutralization IC50 [21]: 0.786 µg/mL
- neutralization IC50 [22]: 0.022 µg/mL
- neutralization IC50 [23]: 0.065 µg/mL
- neutralization IC50 [24]: 0.96 µg/mL
- neutralization IC50 [25]: 0.048 µg/mL
- neutralization IC50 [26]: > 50 µg/mL
- neutralization IC50 [27]: > 50 µg/mL
- neutralization IC50 [28]: 0.007 µg/mL
- neutralization IC50 [29]: 0.014 µg/mL
- neutralization IC50 [30]: > 50 µg/mL
- neutralization IC50 [31]: 0.017 µg/mL
- neutralization IC50 [32]: 0.196 µg/mL
- neutralization IC50 [33]: 0.015 µg/mL
- neutralization IC50 [34]: 0.013 µg/mL
- neutralization IC50 [35]: 15.6 µg/mL
- neutralization IC50 [36]: 0.042 µg/mL
- neutralization IC50 [37]: 0.078 µg/mL
- neutralization IC50 [38]: 0.003 µg/mL
- neutralization IC50 [39]: 0.279 µg/mL
- neutralization IC50 [40]: 0.273 µg/mL
- neutralization IC50 [41]: 0.007 µg/mL
- neutralization IC50 [42]: 0.041 µg/mL
- neutralization IC50 [43]: 0.353 µg/mL

Substance: PGT-127 monoclonal antibody (5145_B14)
- neutralization IC50 [1]: 0.019 µg/mL
- neutralization IC50 [2]: 0.026 µg/mL
- neutralization IC50 [3]: 0.018 µg/mL
- neutralization IC50 [4]: 0.024 µg/mL
- neutralization IC50 [5]: 21.5 µg/mL
- neutralization IC50 [6]: > 50 µg/mL
- neutralization IC50 [7]: > 50 µg/mL
- neutralization IC50 [8]: 0.12 µg/mL
- neutralization IC50 [9]: 0.063 µg/mL
- neutralization IC50 [10]: 0.05 µg/mL
- neutralization IC50 [11]: > 50 µg/mL
- neutralization IC50 [12]: 0.075 µg/mL
- neutralization IC50 [13]: 6.95 µg/mL
- neutralization IC50 [14]: 1.9 µg/mL
- neutralization IC50 [15]: > 50 µg/mL
- neutralization IC50 [16]: 36.7 µg/mL
- neutralization IC50 [17]: 0.022 µg/mL
- neutralization IC50 [18]: 0.018 µg/mL
- neutralization IC50 [19]: > 50 µg/mL
- neutralization IC50 [20]: 0.297 µg/mL
- neutralization IC50 [21]: > 50 µg/mL
- neutralization IC50 [22]: 0.02 µg/mL
- neutralization IC50 [23]: 1.08 µg/mL
- neutralization IC50 [24]: 0.41 µg/mL
- neutralization IC50 [25]: 0.129 µg/mL
- neutralization IC50 [26]: > 50 µg/mL
- neutralization IC50 [27]: > 50 µg/mL
- neutralization IC50 [28]: 0.04 µg/mL
- neutralization IC50 [29]: 0.029 µg/mL
- neutralization IC50 [30]: > 50 µg/mL
- neutralization IC50 [31]: 0.164 µg/mL
- neutralization IC50 [32]: 7.57 µg/mL
- neutralization IC50 [33]: 0.059 µg/mL
- neutralization IC50 [34]: 0.017 µg/mL
- neutralization IC50 [35]: > 50 µg/mL
- neutralization IC50 [36]: > 50 µg/mL
- neutralization IC50 [37]: 0.279 µg/mL
- neutralization IC50 [38]: 0.019 µg/mL
- neutralization IC50 [39]: 19.2 µg/mL
- neutralization IC50 [40]: 0.371 µg/mL
- neutralization IC50 [41]: 0.014 µg/mL
- neutralization IC50 [42]: 0.079 µg/mL
- neutralization IC50 [43]: 10.4 µg/mL

Substance: PGT-125 monoclonal antibody (5123_A06)
- neutralization IC50 [1]: 0.006 µg/mL
- neutralization IC50 [2]: 0.007 µg/mL
- neutralization IC50 [3]: 0.004 µg/mL
- neutralization IC50 [4]: 0.009 µg/mL
- neutralization IC50 [5]: > 50 µg/mL
- neutralization IC50 [6]: > 50 µg/mL
- neutralization IC50 [7]: > 50 µg/mL
- neutralization IC50 [8]: 0.157 µg/mL
- neutralization IC50 [9]: 0.019 µg/mL
- neutralization IC50 [10]: 0.087 µg/mL
- neutralization IC50 [11]: > 50 µg/mL
- neutralization IC50 [12]: 0.036 µg/mL
- neutralization IC50 [13]: 37.5 µg/mL
- neutralization IC50 [14]: > 50 µg/mL
- neutralization IC50 [15]: > 50 µg/mL
- neutralization IC50 [16]: 30.1 µg/mL
- neutralization IC50 [17]: 0.015 µg/mL
- neutralization IC50 [18]: 0.007 µg/mL
- neutralization IC50 [19]: > 50 µg/mL
- neutralization IC50 [20]: 3.23 µg/mL
- neutralization IC50 [21]: 42.5 µg/mL
- neutralization IC50 [22]: 0.01 µg/mL
- neutralization IC50 [23]: 1.31 µg/mL
- neutralization IC50 [24]: 1.23 µg/mL
- neutralization IC50 [25]: 0.048 µg/mL
- neutralization IC50 [26]: > 50 µg/mL
- neutralization IC50 [27]: > 50 µg/mL
- neutralization IC50 [28]: 0.021 µg/mL
- neutralization IC50 [29]: 0.009 µg/mL
- neutralization IC50 [30]: > 50 µg/mL
- neutralization IC50 [31]: 0.042 µg/mL
- neutralization IC50 [32]: 14 µg/mL
- neutralization IC50 [33]: 0.016 µg/mL
- neutralization IC50 [34]: 0.008 µg/mL
- neutralization IC50 [35]: > 50 µg/mL
- neutralization IC50 [36]: 2.46 µg/mL
- neutralization IC50 [37]: 0.064 µg/mL
- neutralization IC50 [38]: 0.004 µg/mL
- neutralization IC50 [39]: 22.1 µg/mL
- neutralization IC50 [40]: 5.47 µg/mL
- neutralization IC50 [41]: 0.005 µg/mL
- neutralization IC50 [42]: 0.111 µg/mL
- neutralization IC50 [43]: 8.06 µg/mL
